According to PMC12108596, “Functional Characterization of MIP_07528 of Mycobacterium indicus pranii for Tyrosine Phosphatase Activity Displays Sensitivity to Oxidative Inactivation and Plays a Role in Immunomodulation” (Biology, 2025):

Tested on: O=[N+]([O-])c1ccc(OP(=O)(O)O)cc1
Assay: purified protein
[1] = pH 7.5 (20 mM Tris, 150 mM NaCl), 37 °C, 2-8 mM pNPP

Substance: rPtpB-Mtb (rMTBPtpB) (Mycobacterium tuberculosis H37Rv)
- Km (pH 7.5, 37.0 °C): 1010 µM

Substance: rMIP_07528 (rPtpB-MIP, rMIPPtpB) (Mycobacterium intracellulare ATCC 13950)
- Km [1]: 300 µM
- kcat [1]: 0.005 s⁻¹
